Source: patent US20170247447A1 (Hoffmann-La Roche, published 2017)
Substitutions are numbered along the chain they refer to. Like-named read-outs stand apart in the source and are kept apart here.

B1: Canakinumab (antibody, V domains shown)
VH: QVQLVESGGGVVQPGRSLRLSCAASGFTFSVYGMNWVRQAPGKGLEWVAIIWYDGDNQYYADSVKGRFTISRDNSKNTLYLQMNGLRAEDTAVYYCARDLRTGPFDYWGQGTLVTVSS
VL: EIVLTQSPDFQSVTPKEKVTITCRASQSIGSSLHWYQQKPDQSPKLLIKYASQSFSGVPSRFSGSGSGTDFTLTINSLEAEDAAAYYCHQSSSLPFTFGPGTKVDIKR
B2: huH34-2 (antibody, V domains shown)
VH: QVQLVQSGAEVKKPGASVKVSCKASGYTFTGYYMHWVRQAPGQGLEWIGYISSYNAFTTYNQKFRGRATFTVDTSISTAYMELSRLRSDDTAVYYCVRSDYYGTSLYWGQGTLVTVSS
VL: EIVLTQSPATLSLSPGERATLSCRASSSVSYMHWSQQKPGQAPRLLIYSTSNLASGIPARFSGSGSGTDFTLTISSLEPEDFAVYYCHQWSNYYTFGQGTKLEIK
notes: Humanized, captured by anti-human Fc in SPR; also called huH34-2 bivalent
B3: antibody 0032 (bispecific anti-VEGF/IL-1beta CrossMab antibody) (bispecific antibody, V domains shown)
VH 1: EVQLVESGGGLVQPGGSLRLSCAASGYDFTHYGMNWVRQAPGKGLEWVGWINTYTGEPTYAADFKRRFTFSLDTSKSTAYLQMNSLRAEDTAVYYCAKYPYYYGTSHWYFDVWGQGTLVTVSS
VL 1: DIQLTQSPSSLSASVGDRVTITCSASQDISNYLNWYQQKPGKAPKVLIYFTSSLHSGVPSRFSGSGSGTDFTLTISSLQPEDFATYYCQQYSTVPWTFGQGTKVEIK
VH 2: B2 VH
VL 2: B2 VL
notes: also called anti-IL-1beta/VEGF antibody
B4: antibody 0031 (bispecific anti-ANG2/IL-1beta CrossMab antibody) (bispecific antibody, V domains shown)
VH 1: B2 VH
VL 1: B2 VL
VH 2: not shown
VL 2: SYVLTQPPSVSVAPGQTARITCGGNNIGSKSVHWYQQKPGQAPVLVVYDTSDRPSGIPERFSGSNSGNTATLTISRVEAGDEADYYCQVWDSSSDHWVFGGGTKLTVLSS
notes: also called anti-IL-1beta/ANG2 antibody
B5: huH34-3 (antibody, V domains shown)
VH: B2 VH with N55S
VL: B2 VL
B6: huH34-1 (antibody, V domains shown)
VH: B2 VH with I48M, N55S, A56G, N61A, R65Q, A68V, F70M, V72R, V97A
VL: B2 VL
B7: murine anti-IL-1beta antibody ILB1-H34 (antibody, mouse IgG1, V domains shown)
VH: EVQLQQSGPELVKTGASVKISCKASGYSFTGYYMHWVKQSHGKSLEWIGYISCYNAFTTYNQRFRGKATFTVDTSSSTAYMQFNSLTSEDSAVYYCVRSDYYGTSLYWGQGTTLTVSS
VL: QIVLTQSPAIMSASLGEEITLTCSASSSVSYMHWSQQKSGSSPKLLIYSTSNLASGVPSRFSGSGSGTFYSLTISSVEAEDAADYYCHQWSNYYTFGGGTKLEIK
notes: also called HLB1-H34
B8: mumAb (novel murine anti-human IL-1beta antibody) (antibody, V domains shown)
VH: EVQLQQSGPELEKPGASVKISCKASGYSFTDYNMNWVRQSNGKSLEWIGNIDPYYGGTTYNQKFKDKATLTVDKSSSTAYMQLKSLTSEDSAVYYCAREGSPTRYYVMDYWGQGTSVTVSS
VL: DIQMTQSPASLSASVGETVTITCRASENIYSNLAWYQQKQGKSPQLLVYAATNLADGVPSRFSGSGSGTQFSLKINSLQPEDFGSYYCHHFYNTPWTFGGGTKLEIK

What was measured:
[1] = molecular target: T1, human IL-1beta (human, UniProt P01584 117-269); assay: cell-based or functional assay
[2] = molecular target: T1, human IL-1beta; assay: cell-based or functional assay; remark: listed apart in the source
[3] = molecular target: T1, human IL-1beta; assay: cell-based or functional assay; remark: listed apart in the source
[4] = molecular target: T1, human IL-1beta; assay: cell-based or functional assay; remark: listed apart in the source
[5] = molecular target: T1, human IL-1beta; assay: SPR (BIAcore T200), antibody captured via anti-human Fc, human IL-1beta in solution
Description: All experiments were performed at 25° C. using HBS-P (10 mM His, 140 mM NaCl, 0.05% Tween 20 pH 7.4) as running and dilution buffer. Anti-human Fc antibodies were immobilized on a Series S CM5 Sensor Chip (GE Healthcare) using standard amine coupling chemistry. Bispecific antibodies were captured on the surface leading to a capturing response of 100-200 RU. […] The dissociation phase was monitored for 600 sec by washing with running buffer. The surface was regenerated by injecting 3 M MgCl2 (for anti-human Fc antibody) or 10 mM Glycine pH 1.5 (for anti-mouse Fc antibody) for 60 sec at a flow rate of 5 μl/min. Bulk refractive index differences were corrected by subtracting the response obtained from a mock surface. Blank injections were subtracted (double referencing). The derived curves were fitted to a 1:1 Langmuir binding model using the BIAevaluation software.

[6] = molecular target: T1, human IL-1beta; assay: cell-based or functional assay; remark: listed apart in the source
[7] = molecular target: T2, cynomolgus IL-1beta (cynomolgus, UniProt P79182 117-268); assay: SPR (BIAcore), antibody captured via anti-Fc, IL-1beta in solution
T2 sequence (P79182 117-268 limits assumed): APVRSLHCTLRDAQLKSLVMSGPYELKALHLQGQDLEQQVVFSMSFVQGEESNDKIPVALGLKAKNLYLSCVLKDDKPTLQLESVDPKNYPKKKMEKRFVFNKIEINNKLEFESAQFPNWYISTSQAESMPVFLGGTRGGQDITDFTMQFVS
Description: All experiments were performed at 25° C. using HBS-P (10 mM His, 140 mM NaCl, 0.05% Tween 20 pH 7.4) as running and dilution buffer. Anti-human or anti-mouse Fc antibodies were immobilized on a Series S CMS Sensor Chip (GE Healthcare) using standard amine coupling chemistry. […] The dissociation phase was monitored for 600 sec by washing with running buffer. […] The surface was regenerated by injecting 3 M MgCl2 (for anti-human Fc antibody) or 10 mM Glycine pH 1.5 (for anti-mouse Fc antibody) for 60 sec at a flow rate of 5 μl/min. Bulk refractive index differences were corrected by subtracting the response obtained from a mock surface. Blank injections were subtracted (double referencing). The derived curves were fitted to a 1:1 Langmuir binding model using the BIAevaluation software.

[8] = molecular target: T1, human IL-1beta; assay: as above
[9] = molecular target: T2, cynomolgus IL-1beta; assay: as above; remark: listed apart in the source
[10] = molecular target: T1, human IL-1beta; assay: as above; remark: listed apart in the source
[11] = molecular target: T1, human IL-1beta; assay: SPR competition, 10 nM human IL-1beta pre-incubated with antibody, competitor immobilized human IL-1RI
Description: All experiments were performed at 25° C. using HBS-P (10 mM His, 140 mM NaCl, 0.05% Tween 20 pH 7.4) as running and dilution buffer. Human IL-1RI was immobilized on a Series S CM5 Sensor Chip (GE Healthcare) using standard amine coupling chemistry. […] The surface was regenerated by injecting 10 mM NaOH for 60 sec at a flow rate of 5 μl/min. Bulk refractive index differences were corrected by subtracting the response obtained from a mock surface.

[12] = molecular target: T1, human IL-1beta; assay: immunoprecipitation radioimmunoassay with 125I-IL-1beta
Description: Determination of antibody affinity—Monoclonal antibody affinity was determined from data obtained using an immunoprecipitation radioimmunoassay. Briefly, 5000 cpm/tube of ¹²⁵IIL-1beta was incubated with dilutions of purified monoclonal antibody in 0.3 ml of 1% non-fat dry milk/0.5% Thimerosal/PBS overnight at 4° C. Antigen-antibody complexes were precipitated by the addition of 100 μL/tube each of 10% normal mouse serum/PBS and 4 mg/ml goat anti mouse IgG sera in PBS. After 4 hours at 4° C., the 1/ml tube of ice-cold 2% polyethylene glycol-6000 was added and the tubes centrifuged at 3000*g for 20 min. at 4° C. The supernatants were aspirated and the pellets counted in a gamma counter.
Affinity constants were calculated using data obtained from an immunoprecipitation radioimmunoassay (RIA) of ¹²⁵IIL-1beta binding of different antibody concentrations as described above.

[13] = molecular target: T1, human IL-1beta; assay: cell-based or functional assay; remark: listed apart in the source
[14] = molecular target: T1, human IL-1beta; assay: cell-based or functional assay; remark: listed apart in the source
[15] = molecular target: T1, human IL-1beta; assay: cell-based or functional assay; remark: listed apart in the source

Binder | IC50, inhibition of ICAM-1 expression, A549 cells [1] [nM] | EC50, reduction of IL-6 expression, A549 cells [2] [nM] | EC50, reduction of IL-6 expression, A549 cells [3] [mg/L] | IC50, inhibition of ICAM-1 expression, HUVEC cells [4] [nM] | t½ [5] [s] | further results
B1 | 0.31 | 0.12 | 0.0864 | 9.02 |  | 
B2 | 0.23 | 0.11 |  | 0.3 | 101 | 
B3 |  |  | 0.0387 |  | 38 | 
B4 |  |  | 0.017 |  | 38 | IC50, inhibition of ICAM-1 expression, A549 cells [6]: 0.104 mg/L
B5 | 2.23 | 1.09 |  |  |  | 
B6 | > 7 | 5.52 |  |  |  | 
B7 | 0.18 |  |  | 0.24 |  | Kd [7]: 0.05 nM; koff [7]: 9.8e-05 s⁻¹; kon [7]: 1.99e+06 M⁻¹ s⁻¹; Kd [8]: 0.07 nM; koff [8]: 0.000127 s⁻¹; kon [8]: 1.85e+06 M⁻¹ s⁻¹; Kd [9]: 0.05 nM; koff [9]: 9.8e-05 s⁻¹; kon [9]: 1.99e+06 M⁻¹ s⁻¹; Kd [10]: 0.07 nM; koff [10]: 0.000127 s⁻¹; kon [10]: 1.85e+06 M⁻¹ s⁻¹; IC50 [11]: 3.5 nM; Ka [12]: 6.4e+10 M⁻¹
B8 |  |  |  |  |  | IC50, inhibition of ICAM-1 expression, A549 cells [13]: 0.7 nM; EC50, reduction of IL-6 expression, A549 cells [14]: 1.09 nM; IC50, inhibition of ICAM-1 expression, HUVEC cells [15]: 16.5 nM
